We go through two substances from PMC10923007.

For experiment [1], the target named is ^GSTCAND1 from bacterial cells (UniProt Q86VP6). The experiment in a line: pull-down.
Experiment [2] concerns the target ^GSTCAND1 from insect cells (UniProt Q86VP6). Briefly: pull-down.
The target in experiment [3] is CUL2^AMCA•RBX1 preassembled with VBC (UniProt Q13617). Briefly: FRET or BRET. On the technique in general: In BRET a luciferase serves as donor, and the signal depends on an acceptor being close.

RBX1•^StrepIICUL2^FL, sequence (Q13617 whole entry): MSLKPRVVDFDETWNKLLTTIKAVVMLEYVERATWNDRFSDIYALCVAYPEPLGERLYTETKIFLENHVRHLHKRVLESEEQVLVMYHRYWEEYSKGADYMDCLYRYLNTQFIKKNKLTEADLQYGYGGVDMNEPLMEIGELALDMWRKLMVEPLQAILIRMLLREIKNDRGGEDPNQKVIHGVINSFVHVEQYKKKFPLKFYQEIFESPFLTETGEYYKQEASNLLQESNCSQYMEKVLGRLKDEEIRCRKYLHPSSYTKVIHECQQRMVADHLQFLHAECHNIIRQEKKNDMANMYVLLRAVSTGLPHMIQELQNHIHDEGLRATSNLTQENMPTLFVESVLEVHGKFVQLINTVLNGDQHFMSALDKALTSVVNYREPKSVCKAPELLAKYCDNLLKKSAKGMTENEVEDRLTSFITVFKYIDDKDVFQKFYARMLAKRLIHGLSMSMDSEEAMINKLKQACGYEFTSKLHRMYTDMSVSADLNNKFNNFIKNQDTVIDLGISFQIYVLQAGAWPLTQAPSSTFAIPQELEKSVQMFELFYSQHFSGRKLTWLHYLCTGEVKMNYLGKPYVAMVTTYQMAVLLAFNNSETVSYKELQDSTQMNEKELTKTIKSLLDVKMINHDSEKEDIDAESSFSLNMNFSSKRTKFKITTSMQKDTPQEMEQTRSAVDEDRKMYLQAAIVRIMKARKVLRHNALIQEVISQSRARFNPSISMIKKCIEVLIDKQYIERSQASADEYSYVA
RBX1•^StrepIICUL2^FL, sequence (P62877 whole entry): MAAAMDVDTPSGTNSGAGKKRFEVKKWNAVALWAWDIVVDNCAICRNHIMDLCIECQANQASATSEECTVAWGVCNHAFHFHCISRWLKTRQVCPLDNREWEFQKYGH
^FlAsHCAND1 from insect cells, sequence (Q86VP6 whole entry): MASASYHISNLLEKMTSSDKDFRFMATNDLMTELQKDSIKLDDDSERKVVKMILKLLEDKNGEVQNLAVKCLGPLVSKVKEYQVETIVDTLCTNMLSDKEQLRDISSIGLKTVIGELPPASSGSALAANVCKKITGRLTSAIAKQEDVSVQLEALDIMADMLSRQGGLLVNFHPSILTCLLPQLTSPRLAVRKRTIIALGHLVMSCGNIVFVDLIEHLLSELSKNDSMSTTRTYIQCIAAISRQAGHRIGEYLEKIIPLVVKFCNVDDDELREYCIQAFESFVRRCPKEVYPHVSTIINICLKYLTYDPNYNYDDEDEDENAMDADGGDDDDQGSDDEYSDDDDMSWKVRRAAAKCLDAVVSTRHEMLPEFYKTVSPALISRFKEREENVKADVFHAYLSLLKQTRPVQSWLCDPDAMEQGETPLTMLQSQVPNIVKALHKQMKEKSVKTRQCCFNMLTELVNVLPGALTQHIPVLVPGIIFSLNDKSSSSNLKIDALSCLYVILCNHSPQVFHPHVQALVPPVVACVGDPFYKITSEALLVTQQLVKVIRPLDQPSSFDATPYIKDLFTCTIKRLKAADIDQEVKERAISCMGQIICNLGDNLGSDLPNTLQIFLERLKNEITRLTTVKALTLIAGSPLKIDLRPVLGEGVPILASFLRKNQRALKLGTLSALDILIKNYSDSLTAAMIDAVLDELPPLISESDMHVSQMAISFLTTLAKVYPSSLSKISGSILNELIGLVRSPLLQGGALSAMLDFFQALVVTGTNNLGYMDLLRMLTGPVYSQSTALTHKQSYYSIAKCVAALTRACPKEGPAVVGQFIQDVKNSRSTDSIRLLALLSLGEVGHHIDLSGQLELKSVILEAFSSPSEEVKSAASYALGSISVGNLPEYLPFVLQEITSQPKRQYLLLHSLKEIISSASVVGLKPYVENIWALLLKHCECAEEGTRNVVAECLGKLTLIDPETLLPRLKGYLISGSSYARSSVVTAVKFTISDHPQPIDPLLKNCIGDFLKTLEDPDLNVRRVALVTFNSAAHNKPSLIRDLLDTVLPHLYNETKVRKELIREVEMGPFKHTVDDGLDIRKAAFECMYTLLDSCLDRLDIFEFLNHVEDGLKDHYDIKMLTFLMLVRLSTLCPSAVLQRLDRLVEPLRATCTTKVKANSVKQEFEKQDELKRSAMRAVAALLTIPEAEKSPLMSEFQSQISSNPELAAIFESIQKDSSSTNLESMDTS
^GSTCAND1 from bacterial cells, sequence (Q86VP6 whole entry): as above
^GSTCAND1 from insect cells, sequence (Q86VP6 whole entry): as above

Regarding “RBX1•^StrepIICUL2^FL (from UniProt Q13617 1-745; P62877 1-108) (complex)”, the t1/2 of dissociation in experiment [1] was 3.5 min; in experiment [2] it was 16 min.
For orientation: kon means a measure of how fast the partners come together. Read a high kon as faster complex formation. For “^FlAsHCAND1 from insect cells (from UniProt Q86VP6 1-1230) (natural protein)”, the association rate constant (kon) in experiment [3] is 9.8e+07 M⁻¹ s⁻¹.
